# Laboratory results: US20180155451A1 (published 2018)
# Biological target: T1, FcγRIIIa extracellular domain with C-terminal His tag (human, UniProt P08637 17-208)
# T1 construct: extracellular domain; also called FcgRIIIa; 3a; not shown: His tag at the C terminus
# Assay: SPR relative binding; GpH7-A5/GpH7-B3/GpL16-k0 = 100
# Description: Analysis of interaction between objective antibody and the FcγR was carried out using Biacore T100 (GE Healthcare). HBS-EP+ (GE Healthcare) was used as the running buffer, and the measurement temperature was set to 25° C. Chips produced by immobilizing the antigen peptide by the amine coupling method to a Series S Sencor Chip CM5 (GE Healthcare), or alternatively, chips produced by allowing preliminarily biotinylated antigen peptides to interact with and immobilize onto a Series S Sensor Chip SA (certified) (GE Healthcare) were used. Antibodies of interest were captured onto an antigen peptide-immobilized chip, and allowed to interact to each FcγR diluted with running buffer. To regenerate and repeatedly use the chip, the antibodies captured on the chip were washed off by reacting 10 mM glycine-HCl, pH 1.5.
# The FcγR-binding activity of each antibody was assessed primarily using as an indicator the FcγR-binding activity and dissociation constant for FcγR.
# T1 sequence (P08637 17-208): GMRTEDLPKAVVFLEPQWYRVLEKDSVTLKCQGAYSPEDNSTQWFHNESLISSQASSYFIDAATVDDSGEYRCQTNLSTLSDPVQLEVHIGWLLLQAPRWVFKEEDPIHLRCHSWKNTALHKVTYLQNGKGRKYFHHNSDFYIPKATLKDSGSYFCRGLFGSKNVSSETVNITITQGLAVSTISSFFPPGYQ
row,Binder,He/Con_3a
1,"GpH7-A5/GpH7-B3 variant I336_02A/GpL16-k0 (antibody, human IgG1, kappa, also called He Ab I336_02A) heavy 1: not shown heavy 2: not shown light: DIVMTQSPLSLPVTPGEPASISCQASESLVHSNRNTYLHWYLQKPGQSPQLLIYKVSNRFSGVPDRFSGSGSGTDFTLKISRVEAEDVGVYYCSQNTHVPPTFGQGTKVEIERTVAAPSVFIFPPSDEQLKSGTASVVCLLNNFYPREAKVQWKVDNALQSGNSQESVTEQDSKDSTYSLSSTLTLSKADYEKHKVYACEVTHQGLSSPVTKSFNRGEC",111 % of control
2,"GpH7-A5/GpH7-B3 variant I336_03V/GpL16-k0 (antibody, human IgG1, kappa, also called He Ab I336_03V) heavy 1: not shown heavy 2: not shown light: DIVMTQSPLSLPVTPGEPASISCQASESLVHSNRNTYLHWYLQKPGQSPQLLIYKVSNRFSGVPDRFSGSGSGTDFTLKISRVEAEDVGVYYCSQNTHVPPTFGQGTKVEIERTVAAPSVFIFPPSDEQLKSGTASVVCLLNNFYPREAKVQWKVDNALQSGNSQESVTEQDSKDSTYSLSSTLTLSKADYEKHKVYACEVTHQGLSSPVTKSFNRGEC",112 % of control
3,"GpH7-A5/GpH7-B3 variant I336_06M/GpL16-k0 (antibody, human IgG1, kappa, also called He Ab I336_06M) heavy 1: not shown heavy 2: not shown light: DIVMTQSPLSLPVTPGEPASISCQASESLVHSNRNTYLHWYLQKPGQSPQLLIYKVSNRFSGVPDRFSGSGSGTDFTLKISRVEAEDVGVYYCSQNTHVPPTFGQGTKVEIERTVAAPSVFIFPPSDEQLKSGTASVVCLLNNFYPREAKVQWKVDNALQSGNSQESVTEQDSKDSTYSLSSTLTLSKADYEKHKVYACEVTHQGLSSPVTKSFNRGEC",109 % of control
4,"GpH7-A5/GpH7-B3 variant I336_08L/GpL16-k0 (antibody, human IgG1, kappa, also called He Ab I336_08L) heavy 1: not shown heavy 2: not shown light: DIVMTQSPLSLPVTPGEPASISCQASESLVHSNRNTYLHWYLQKPGQSPQLLIYKVSNRFSGVPDRFSGSGSGTDFTLKISRVEAEDVGVYYCSQNTHVPPTFGQGTKVEIERTVAAPSVFIFPPSDEQLKSGTASVVCLLNNFYPREAKVQWKVDNALQSGNSQESVTEQDSKDSTYSLSSTLTLSKADYEKHKVYACEVTHQGLSSPVTKSFNRGEC",106 % of control
5,"GpH7-A5/GpH7-B3 variant I336_18N/GpL16-k0 (antibody, human IgG1, kappa, also called He Ab I336_18N) heavy 1: not shown heavy 2: not shown light: DIVMTQSPLSLPVTPGEPASISCQASESLVHSNRNTYLHWYLQKPGQSPQLLIYKVSNRFSGVPDRFSGSGSGTDFTLKISRVEAEDVGVYYCSQNTHVPPTFGQGTKVEIERTVAAPSVFIFPPSDEQLKSGTASVVCLLNNFYPREAKVQWKVDNALQSGNSQESVTEQDSKDSTYSLSSTLTLSKADYEKHKVYACEVTHQGLSSPVTKSFNRGEC",104 % of control
6,"GpH7-A5/GpH7-B3 variant K326_07I/GpL16-k0 (antibody, human IgG1, kappa, also called He Ab K326_07I) heavy 1: not shown heavy 2: not shown light: DIVMTQSPLSLPVTPGEPASISCQASESLVHSNRNTYLHWYLQKPGQSPQLLIYKVSNRFSGVPDRFSGSGSGTDFTLKISRVEAEDVGVYYCSQNTHVPPTFGQGTKVEIERTVAAPSVFIFPPSDEQLKSGTASVVCLLNNFYPREAKVQWKVDNALQSGNSQESVTEQDSKDSTYSLSSTLTLSKADYEKHKVYACEVTHQGLSSPVTKSFNRGEC",139 % of control
7,"GpH7-A5/GpH7-B3 variant K326_08L/GpL16-k0 (antibody, human IgG1, kappa, also called He Ab K326_08L) heavy 1: not shown heavy 2: not shown light: DIVMTQSPLSLPVTPGEPASISCQASESLVHSNRNTYLHWYLQKPGQSPQLLIYKVSNRFSGVPDRFSGSGSGTDFTLKISRVEAEDVGVYYCSQNTHVPPTFGQGTKVEIERTVAAPSVFIFPPSDEQLKSGTASVVCLLNNFYPREAKVQWKVDNALQSGNSQESVTEQDSKDSTYSLSSTLTLSKADYEKHKVYACEVTHQGLSSPVTKSFNRGEC",114 % of control
8,"GpH7-A5/GpH7-B3 variant K334_01G/GpL16-k0 (antibody, human IgG1, kappa, also called He Ab K334_01G) heavy 1: not shown heavy 2: not shown light: DIVMTQSPLSLPVTPGEPASISCQASESLVHSNRNTYLHWYLQKPGQSPQLLIYKVSNRFSGVPDRFSGSGSGTDFTLKISRVEAEDVGVYYCSQNTHVPPTFGQGTKVEIERTVAAPSVFIFPPSDEQLKSGTASVVCLLNNFYPREAKVQWKVDNALQSGNSQESVTEQDSKDSTYSLSSTLTLSKADYEKHKVYACEVTHQGLSSPVTKSFNRGEC",121 % of control
9,"GpH7-A5/GpH7-B3 variant K334_09D/GpL16-k0 (antibody, human IgG1, kappa, also called He Ab K334_09D) heavy 1: not shown heavy 2: not shown light: DIVMTQSPLSLPVTPGEPASISCQASESLVHSNRNTYLHWYLQKPGQSPQLLIYKVSNRFSGVPDRFSGSGSGTDFTLKISRVEAEDVGVYYCSQNTHVPPTFGQGTKVEIERTVAAPSVFIFPPSDEQLKSGTASVVCLLNNFYPREAKVQWKVDNALQSGNSQESVTEQDSKDSTYSLSSTLTLSKADYEKHKVYACEVTHQGLSSPVTKSFNRGEC",160 % of control
10,"GpH7-A5/GpH7-B3 variant L234_04F/GpL16-k0 (antibody, human IgG1, kappa, also called He Ab L234_04F) heavy 1: not shown heavy 2: not shown light: DIVMTQSPLSLPVTPGEPASISCQASESLVHSNRNTYLHWYLQKPGQSPQLLIYKVSNRFSGVPDRFSGSGSGTDFTLKISRVEAEDVGVYYCSQNTHVPPTFGQGTKVEIERTVAAPSVFIFPPSDEQLKSGTASVVCLLNNFYPREAKVQWKVDNALQSGNSQESVTEQDSKDSTYSLSSTLTLSKADYEKHKVYACEVTHQGLSSPVTKSFNRGEC",118 % of control
11,"GpH7-A5/GpH7-B3 variant L234_07I/GpL16-k0 (antibody, human IgG1, kappa, also called He Ab L234_07I) heavy 1: not shown heavy 2: not shown light: DIVMTQSPLSLPVTPGEPASISCQASESLVHSNRNTYLHWYLQKPGQSPQLLIYKVSNRFSGVPDRFSGSGSGTDFTLKISRVEAEDVGVYYCSQNTHVPPTFGQGTKVEIERTVAAPSVFIFPPSDEQLKSGTASVVCLLNNFYPREAKVQWKVDNALQSGNSQESVTEQDSKDSTYSLSSTLTLSKADYEKHKVYACEVTHQGLSSPVTKSFNRGEC",103 % of control
12,"GpH7-A5/GpH7-B3 variant L234_20W/GpL16-k0 (antibody, human IgG1, kappa, also called He Ab L234_20W) heavy 1: not shown heavy 2: not shown light: DIVMTQSPLSLPVTPGEPASISCQASESLVHSNRNTYLHWYLQKPGQSPQLLIYKVSNRFSGVPDRFSGSGSGTDFTLKISRVEAEDVGVYYCSQNTHVPPTFGQGTKVEIERTVAAPSVFIFPPSDEQLKSGTASVVCLLNNFYPREAKVQWKVDNALQSGNSQESVTEQDSKDSTYSLSSTLTLSKADYEKHKVYACEVTHQGLSSPVTKSFNRGEC",107 % of control
13,"GpH7-A5/GpH7-B3 variant P238_09D/GpL16-k0 (antibody, human IgG1, kappa, also called He Ab P238_09D) heavy 1: not shown heavy 2: not shown light: DIVMTQSPLSLPVTPGEPASISCQASESLVHSNRNTYLHWYLQKPGQSPQLLIYKVSNRFSGVPDRFSGSGSGTDFTLKISRVEAEDVGVYYCSQNTHVPPTFGQGTKVEIERTVAAPSVFIFPPSDEQLKSGTASVVCLLNNFYPREAKVQWKVDNALQSGNSQESVTEQDSKDSTYSLSSTLTLSKADYEKHKVYACEVTHQGLSSPVTKSFNRGEC",106 % of control
14,"GpH7-A5/GpH7-B3 variant P238_10E/GpL16-k0 (antibody, human IgG1, kappa, also called He Ab P238_10E) heavy 1: not shown heavy 2: not shown light: DIVMTQSPLSLPVTPGEPASISCQASESLVHSNRNTYLHWYLQKPGQSPQLLIYKVSNRFSGVPDRFSGSGSGTDFTLKISRVEAEDVGVYYCSQNTHVPPTFGQGTKVEIERTVAAPSVFIFPPSDEQLKSGTASVVCLLNNFYPREAKVQWKVDNALQSGNSQESVTEQDSKDSTYSLSSTLTLSKADYEKHKVYACEVTHQGLSSPVTKSFNRGEC",105 % of control
15,"GpH7-A5/GpH7-B3 variant P271_01G/GpL16-k0 (antibody, human IgG1, kappa, also called He Ab P271_01G) heavy 1: not shown heavy 2: not shown light: DIVMTQSPLSLPVTPGEPASISCQASESLVHSNRNTYLHWYLQKPGQSPQLLIYKVSNRFSGVPDRFSGSGSGTDFTLKISRVEAEDVGVYYCSQNTHVPPTFGQGTKVEIERTVAAPSVFIFPPSDEQLKSGTASVVCLLNNFYPREAKVQWKVDNALQSGNSQESVTEQDSKDSTYSLSSTLTLSKADYEKHKVYACEVTHQGLSSPVTKSFNRGEC",113 % of control
16,"GpH7-A5/GpH7-B3 variant Q295_14T/GpL16-k0 (antibody, human IgG1, kappa, also called He Ab Q295_14T) heavy 1: not shown heavy 2: not shown light: DIVMTQSPLSLPVTPGEPASISCQASESLVHSNRNTYLHWYLQKPGQSPQLLIYKVSNRFSGVPDRFSGSGSGTDFTLKISRVEAEDVGVYYCSQNTHVPPTFGQGTKVEIERTVAAPSVFIFPPSDEQLKSGTASVVCLLNNFYPREAKVQWKVDNALQSGNSQESVTEQDSKDSTYSLSSTLTLSKADYEKHKVYACEVTHQGLSSPVTKSFNRGEC",115 % of control
